Test results from US20040018172A1 (US Dept. of Health and Human Services, published 2004).

Assays:
[1] = molecular target: T1, ^125I-IFN-α2b binding site on Daudi and WISH cells (human); assay: displacement of ^125I-IFN-α2b from Daudi cells (competitor: ^125I-IFN-α2b)
T1 chain 1: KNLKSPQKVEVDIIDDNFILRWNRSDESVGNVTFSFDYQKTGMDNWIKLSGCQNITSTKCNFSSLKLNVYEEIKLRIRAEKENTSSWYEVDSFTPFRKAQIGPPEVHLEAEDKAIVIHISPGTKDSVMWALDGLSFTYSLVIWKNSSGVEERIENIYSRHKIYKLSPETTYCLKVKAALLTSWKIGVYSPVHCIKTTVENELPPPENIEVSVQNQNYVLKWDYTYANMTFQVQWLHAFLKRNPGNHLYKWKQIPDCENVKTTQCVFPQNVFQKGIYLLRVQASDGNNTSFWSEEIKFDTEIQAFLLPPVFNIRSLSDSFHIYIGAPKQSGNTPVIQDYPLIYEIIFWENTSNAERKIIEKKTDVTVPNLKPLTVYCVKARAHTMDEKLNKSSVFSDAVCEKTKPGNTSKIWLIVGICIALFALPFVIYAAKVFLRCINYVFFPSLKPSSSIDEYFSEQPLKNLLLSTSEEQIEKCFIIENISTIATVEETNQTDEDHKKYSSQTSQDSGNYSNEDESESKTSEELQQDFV
T1 chain 2: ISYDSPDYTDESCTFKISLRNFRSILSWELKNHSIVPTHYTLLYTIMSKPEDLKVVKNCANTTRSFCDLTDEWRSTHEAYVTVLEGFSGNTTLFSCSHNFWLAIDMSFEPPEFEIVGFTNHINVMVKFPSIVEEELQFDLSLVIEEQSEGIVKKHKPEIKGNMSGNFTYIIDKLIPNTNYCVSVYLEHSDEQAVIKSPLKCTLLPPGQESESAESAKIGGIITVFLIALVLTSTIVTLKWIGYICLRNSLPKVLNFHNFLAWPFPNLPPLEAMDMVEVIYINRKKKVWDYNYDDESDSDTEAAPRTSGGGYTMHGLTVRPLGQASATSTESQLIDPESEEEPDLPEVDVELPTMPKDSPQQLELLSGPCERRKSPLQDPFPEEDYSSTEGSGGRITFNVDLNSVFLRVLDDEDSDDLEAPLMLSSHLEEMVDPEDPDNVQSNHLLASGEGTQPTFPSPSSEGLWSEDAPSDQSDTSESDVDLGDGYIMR

[2] = molecular target: T1, ^125I-IFN-α2b binding site on Daudi and …; assay: displacement of ^125I-IFN-α2b from WISH cells (competitor: ^125I-IFN-α2b)

B1: IFN-α21a (ligand, human, UniProt P01568 24-189, looked up)
chain: CDLPQTHSLGNRRALILLAQMGRISPFSCLKDRHDFGFPQEEFDGNQFQKAQAISVLHEMIQQTFNLFSTKDSSATWEQSLLEKFSTELNQQLNDLEACVIQEVGVEETPLMNVDSILAVKKYFQRITLYLTEKKYSPCAWEVVRAEIMRSFSLSKIFQERLRRKE
notes: mature; Recombinant, made in E. coli from pQE30/A21 and purified on Ni-NTA, so an amino-terminal hexa-histidine tag may be present; also called interferon-α21a; IFNA21
IC50 [1]: > 0.4 µg/mL | IC50 [2]: > 0.2 µg/mL

B2: HY-2: IFN-α21a(1-95)/IFN-α2c(96-166) (ligand)
chain: CDLPQTHSLGNRRALILLAQMGRISPFSCLKDRHDFGFPQEEFDGNQFQKAQAISVLHEMIQQTFNLFSTKDSSATWEQSLLEKFSTELNQQLNDLEACVIQGVGVTETPLMKEDSILAVRKYFQRITLYLKEKKYSPCAWEVVRAEIMRSFSLSTNLQESLRSKE
notes: Expressed from pQE30 in E. coli and purified on Ni-NTA, so an amino-terminal hexa-histidine tag may be present; also called AF085804
IC50 [1]: > 0.4 µg/mL | IC50 [2]: > 0.2 µg/mL
